# Measurements: patent publication US20240398899A1 (priority 2021, published 2024)
# “And” between values parts separate entries of the source, which are not always exact repeats. Identical values can stand only once. Like-named read-outs stand apart in the source and are kept apart here.
# B1: SEQ ID NO: 1: variant of the S. rolfsii lectin amino acid sequence (reported as Rec-2 in WO2010/095143) (protein)
# chain: TYKITVRVYQTNPDAFFHPVEKTVWKYANGGTWTITDDQHVLTMGGSGTSGTLRFHADNGESFTATFGVHNYKRWCDIVTNLAADETGMVINQQYYSQKNREEARERQLSNYQVKNAKGRNFQIVYTEAEGNDLHANLIIG
# Columns and labels:
# [1] = tested on: Acetylcholinesterase; conditions: mice; for brain Acetylcholine esterase Mean: scopolamine 2.5 mg/kg i.p.
# Procedure: Healthy male Swiss albino mice (n=48) were selected and randomized based on body weight (n=8 per Group) into 6 groups as mentioned in table no-1. The control group G1 was treated intravenously with vehicle daily till the experiment completion. Group G2 was considered as negative control and treated with vehicle. […] Group G4, G5 &G6 animals were treated with the test item recombinant lectin protein having SEQ ID NO: 1 at the dose of 0.5 mg/kg, 0.25 mg/kg and 0.125 mg/kg, respectively. All the test items were given intravenously (i.v) daily at the dose volume of 5 ml/kg for 14 Days. The body weight was recorded daily throughout the experimental period. […] One hour after the last dose of test items (on Day 14) all the animals were injected with scopolamine hydrobromide at the dose of 2.5 mg/kg, i.p., except the normal control group G1. Passive avoidance test was conducted 30 min after scopolamine injection.
# After passive avoidance test screening models of memory, the animals were sacrificed humanely. The whole brain was carefully removed from the skull and weighed. Brain was dissected into two portions
# 10% w/v brain homogenate (100 mg/mL) was prepared by homogenizing it in ice-chilled phosphate buffer. The homogenate was subsequently centrifuged using a refrigerated centrifuge at 3000 rpm for 10 min, and the supernatant was separated and used for the biochemical estimations.
# Following biomarkers was estimated using ELISA kit as per manufacturer's instruction. • Brain NGF (Nerve Growth Factor), CUSABIO, Catalog No. CSB-E04684m • Acetylcholinesterase, CUSABIO, Catalog No. CSB-E17521m • TNF alpha, CUSABIO, Catalog No. CSB-E04741m
# [2] = tested on: TNF alpha; assay: Brain biomarker ELISA, scopolamine induced dementia; type: in vivo, Mus musculus (Swiss Albino); conditions: scopolamine 2.5 mg/kg i.p., mice
# [3] = tested on: SH-SY5Y neuronal cells; assay: Annexin-V staining of apoptotic cells against MPP+ iodide damage; type: cell-based, human; conditions: MPP+ iodide 1 mM; for % Decrease in Apoptotic cells (wrt MPP + iodide): Annexin
# Procedure: After 24 h of treatment, cells were exposed to damage (MPP+ iodide 1 mM) for 24 h. […] Untreated cells were included as control. Cells treated with Deprenyl served as positive control. After treatment, cells were harvested by trypsinization and processed for Annexin V assay as follows: Cell were gently harvested into pre-labeled sterile centrifuge tubes and centrifuged at 300×g for 5-7 min. After 24 h of treatment, cells were exposed to damage (MPP+ iodide 1 mM) for 24 h. Cells treated with MPP+ iodide alone were included as Control. Untreated cells were included as negative control. Cells treated with Deprenyl served as positive control. After treatment, cells were harvested by trypsinization and processed for Annexin V assay as follows: Cell were gently harvested into pre-labelled sterile centrifuge tubes and centrifuged at 300×g for 5-7 min. Supernatant were discarded and the pellet was resuspended in 200 μl of fresh culture medium. 100 μl of cell suspension was transferred into pre-labeled sterile centrifuge tubes. 100 μl of Annexin-V reagent was added to each tube and incubated for 30 min at RT in dark. Cells stained for Annexin-V were then transferred into 96-well plates and acquired on flow cytometer (Guava technologies). Percentage of Annexin-V positive cells was determined.
# Percent inhibition in apoptotic cells=[(% Annexin positive cells in MPP+iodide alone)−(% Annexin positive cells in Recombinant Lectin having SEQ ID NO:1+MPP+iodide)/% Annexin positive cells in MPP+iodide alone]*100
# [4] = tested on: Cerebral Cortex and Hippocampus; assay: Brain histopathology (H&E), scopolamine induced dementia; type: in vivo, Mus musculus (Swiss Albino)
# Procedure: Mouse brains were collected after humane sacrifice and fixed in 10% neutral buffered formalin. Then, the brain tissue was trimmed, processed and embedded in paraffin. 5 Micron sections were prepared in slide as a specimen for hematoxylin-eosin (H&E) staining. The hippocampal lesions were assessed microscopically at 100× magnification.
# Detailed histological investigation was performed H&E stained brain tissues. Scoring was given according to the neuronal damage. […] The grading criteria for Histopathology score was: Normal or no injury—0; Rare neuronal injury (<5 clusters)—1; Occasional neuronal injury (5-15 clusters)—2; Frequent neuronal injury (>15 clusters)—3; Diffused neuronal injury-4.
# [5] = G4: 0.5 mg/kg i.v. qdx14, score 0 normal to 4 diffused neuronal injury
# [6] = G5: 0.25 mg/kg i.v. qdx14, score 0 normal to 4 diffused neuronal injury
# [7] = G6: 0.125 mg/kg i.v. qdx14, score 0 normal to 4 diffused neuronal injury
molecule,measurement,setting,value
B1,effect on scopolamine-increased AChE activity in the brain,[1]; 0.5 mg/kg pretreatment,significantly (p<0.001) attenuated
same,brain Acetylcholine esterase Mean,[1]; G4: 0.5 mg/kg i.v. qdx14,4.47 mU/ml
same,brain Acetylcholine esterase Mean,[1]; G5: 0.25 mg/kg i.v. qdx14,6.27 mU/ml
same,brain Acetylcholine esterase Mean,[1]; G6: 0.125 mg/kg i.v. qdx14,6.59 mU/ml
same,brain TNF-alpha Mean,[2]; G4: 0.5 mg/kg i.v. qdx14,121.7 pg/mL and 121.73 pg/mL
same,brain TNF-alpha Mean,[2]; G5: 0.25 mg/kg i.v. qdx14,67.65 pg/mL
same,brain TNF-alpha Mean,[2]; G6: 0.125 mg/kg i.v. qdx14,79.53 pg/mL
same,% Apoptotic cells (Anenxin + ve),[3]; 0.001 μg/mL,1.8%
same,% Decrease in Apoptotic cells (wrt MPP + iodide),[3]; 0.001 μg/mL,56.8%
same,% Apoptotic cells (Anenxin + ve),[3]; 0.01 μg/mL,1.2%
same,% Decrease in Apoptotic cells (wrt MPP + iodide),[3]; 0.01 μg/mL,70.4%
same,% Apoptotic cells (Anenxin + ve),[3]; 0.05 μg/mL,2.6%
same,% Decrease in Apoptotic cells (wrt MPP + iodide),[3]; 0.05 μg/mL,35.8%
same,% Apoptotic cells (Anenxin + ve),[3]; 0.1 μg/mL,3.1%
same,% Decrease in Apoptotic cells (wrt MPP + iodide),[3]; 0.1 μg/mL,23.5%
same,% Apoptotic cells (Anenxin + ve),[3]; 1 μg/mL,2.3%
same,% Decrease in Apoptotic cells (wrt MPP + iodide),[3]; 1 μg/mL,43.2%
same,Histopathology (Mean score) Cerebral Cortex Cortex,[4]; [5],0
same,Histopathology (Mean score) Cerebral Cortex Meninges,[4]; [5],0
same,Histopathology (Mean score) Hippocampus CA1,[4]; [5],0
same,Histopathology (Mean score) Hippocampus CA3,[4]; [5],0.67
same,Histopathology (Mean score) Hippocampus DG,[4]; [5],0
same,Histopathology (Mean score) Cerebral Cortex Cortex,[4]; [6],0
same,Histopathology (Mean score) Cerebral Cortex Meninges,[4]; [6],0
same,Histopathology (Mean score) Hippocampus CA1,[4]; [6],0
same,Histopathology (Mean score) Hippocampus CA3,[4]; [6],0.6
same,Histopathology (Mean score) Hippocampus DG,[4]; [6],0
same,Histopathology (Mean score) Cerebral Cortex Cortex,[4]; [7],0
same,Histopathology (Mean score) Cerebral Cortex Meninges,[4]; [7],0
same,Histopathology (Mean score) Hippocampus CA1,[4]; [7],0
same,Histopathology (Mean score) Hippocampus CA3,[4]; [7],1
same,Histopathology (Mean score) Hippocampus DG,[4]; [7],0
